Measured values from patent publication US12398199 (SYSVAX, dated 2025).

B1: NBS1-2 (VHH)
VHH: QVQLVESGGGLVQAGDSLRLACAATGRTLSNYIMGWFRQAPGKEPLFVAAISRSGVITKYADSVEGRFTISRDNAKNTAYLQMTSLEPEDTAVYYCAASSSKYMATREYDYWGQGTQVTVSS
notes: also called XBS1-2; nano antibody NBS1-2
B2: NBS1-3 (VHH)
VHH: QVQLVESGGGLVQPGASLRLSCAASGRTFSSTGMGWFRQAPGKEREFVAAISGDGDTTYYADSVKGRFTISRDNAKNTVYLQMNSLKPWDTAVYYCASTRFTWGLYSDFVNSYEYDAWGQGTPVTVSS
notes: also called nano antibody NBS1-3
B3: NBS1-57 (VHH)
VHH: QVQLVESGGGLVQPGASLRLFCVASGRTFSSTGMGWFRQAPGKEREFVAAISGPGDTTYYVDSVKGRFTISRDNAKNTVYLQMNSLKPEDTAVYYCASAGFTWGLYSDFVNSYEYNYWGQGTPVTVSS
notes: also called nano antibody NBS1-57
B4: NBS1-10 (VHH)
VHH: QVQLVESGGGLVQPGGSLRLSCAASGRTFSSTGMGWFRQGPGKEREFVAAISGDGDTTYYADSVKGRFTISRDNAKNTVYLQMNSLKPEDTAVYYCASARFTWGLYSDFVNSYEYDAWGQGTPVTVSS
notes: also called nano antibody NBS1-10

What follows are binders tested against antigen RBD-FC protein (SARS-CoV-2 RBD protein) (SARS-CoV-2, UniProt P0DTC2 319-541) (assay: thin film interference (Gator), RBD-Fc captured on anti-human Fc probe, nano antibody in solution).
Description: In this example, an instrument Gator® probe life was used to detect an intermolecular interaction with a thin film interference method. A sample to be detected with a concentration not less than 80% and an antigen RBD-FC protein (SARS-CoV-2 RBD protein) with a concentration not less than 90% were prepared.
2. Experimental Method: 1) Detection method of NBS1-2 sample: the nano antibody was detected with an immobilized antigen RBD-Fc (100 nM); the probe type used was the anti-human Fc antibody; and the NBS1-2 was diluted to 60,000 nM, 30,000 nM, 15,000 nM, 7,500 nM, 3,750 nM, 1,875 nM, 937.5 nM, and 0 nM with the Q buffer. 2) Detection method of NBS1-3 sample: the nano antibody was detected with the immobilized antigen RBD-Fc (100 nM); the probe type used was the anti-human Fc antibody; and the NBS1-3 was diluted to 25 nM, 12.5 nM, 6.25 nM, 3.18 nM, 1.56 nM, 0.78 nM, and 0 nM with the Q buffer. 3) Detection method of NBS1-10 sample: the nano antibody was detected with the immobilized antigen RBD-Fc (100 nM); the probe type used was the anti-human Fc antibody; and the NBS1-10 was diluted to 25 nM, 12.5 nM, 6.25 nM, 3.18 nM, 1.56 nM, 0.78 nM, and 0 nM with the Q buffer.
4) Detection method of NBS1-57 sample: the nano antibody was detected with the immobilized antigen RBD-Fc (100 nM); the probe type used was the anti-human Fc antibody; and the NBS1-57 was diluted to 25 nM, 12.5 nM, 6.25 nM, 3.18 nM, 1.56 nM, 0.78 nM, and 0 nM with the Q buffer.

Point of comparison: B4, Kd 1.31 nM. Against it:
- B1 — 1100-fold higher, 1410 nM
- B2 — 44-fold lower, 0.0301 nM
- B3 — within 1.5-fold, 1.29 nM

Point of comparison: B1, koff 0.00127 s⁻¹. Against it:
- B2 — 18-fold lower, 7.16e-05 s⁻¹
- B3 — 3.9-fold higher, 0.00491 s⁻¹
- B4 — 2.4-fold higher, 0.00311 s⁻¹

Point of comparison: B2, kon 2.38e+06 M⁻¹ s⁻¹. Against it:
- B1 — 2700-fold lower, 895 M⁻¹ s⁻¹
- B3 — 1.6-fold higher, 3.8e+06 M⁻¹ s⁻¹
- B4 — within 1.5-fold, 2.37e+06 M⁻¹ s⁻¹
